Patent US20210283212A1 (RA PHARMACEUTICALS, published 2021)
Starred links: 1 amine or outer side, 2 acyl side, 3 side chain; linkers in the order of their positions; H or OH if unused. Positions of bridges follow the written chain, without caps; N, C: chain ends. Non-standard residues stand in square brackets, D forms with d. Primed or numbered codes have the meaning given here. No end group written: not given here. Lys‑C8 = N-ε-caprylic lysine, CCCCCCCC(=O)NCCCC[C@H](N[*:1])C(=O)[*:2]; mXylyl(3) = bridging moiety between the two residues given in brackets; m‑xylyl = bridging moiety between the two residues given in brackets; mXylyl″ = bridging moiety between the two marked residues; Ala(1H-tetrazol-5-yl) = N[C@@H](Cc1nnn[nH]1)C(=O)O; Trp(7-aza) = N[C@@H](Cc1c[nH]c2ncccc12)C(=O)O; mXylyl(4) = bridging moiety between residues; pXylyl = bridging moiety between residues; oXylylene = c1ccc(C[*:2])c(C[*:1])c1; NMeD = CN[C@@H](CC(=O)O)C(=O)O; dPhg = N[C@@H](C(=O)O)c1ccccc1; Chg = N[C@H](C(=O)O)C1CCCCC1; Phg = N[C@H](C(=O)O)c1ccccc1; Tle = CC(C)(C)[C@H](N)C(=O)O; Lys‑C12 = N-ε-lauryl lysine; NMeS = CN[C@@H](CO)C(=O)O; NMeA = CN[C@@H](C)C(=O)O; Nva = CCC[C@H](N)C(=O)O; Sar = CNCC(=O)O

B1: R3161 (peptide)
peptide: Ac-CAERFCD[Tle]Y[Trp(7-aza)]EYP[Phg]K-NH2
modifications: linker 1-6 via m‑xylyl
B2: R3019 (peptide)
peptide: Ac-[Nva]CYEN[Tle]Y[Trp(7-aza)]EYP[Phg][Nva]C-NH2
modifications: linker 2-14 via mXylyl″
B3: R3153 (peptide)
peptide: Ac-CVEAFCD[Tle]Y[Trp(7-aza)]EYP[Phg][Nva]-NH2
modifications: linker 1-6 via mXylyl(3)
B4: R3168 (peptide)
peptide: Ac-CVERFC[Ala(1H-tetrazol-5-yl)][Tle]Y[Trp(7-aza)]EYP[Chg][Nva]-NH2
modifications: linker 1-6 via mXylyl(3)
B5: R3166 (peptide)
peptide: Ac-CAERFCD[Tle]Y[Trp(7-aza)]EYP[Phg][Lys‑C8]-NH2
modifications: linker 1-6 via m‑xylyl
B6: R3040 (peptide)
peptide: Ac-[Nva]C[Phg]T[Trp(7-aza)]EY[NMeS]HC[Nva]P[Nva]
modifications: bridge 2-10
B7: R3020 (peptide)
peptide: MCSERYCEVRWEY-NH2
modifications: linker 2-7 via mXylyl″
B8: R3022 (peptide)
peptide: Ac-[Nva]C[Phg]T[Trp(7-aza)]EY[NMeS]HC[Nva]P[Nva]-NH2
modifications: cysteine pairing not given here
B9: R3039 (peptide)
peptide: Ac-[Nva]C[Phg]T[Trp(7-aza)]EY[NMeS]HCA-NH2
modifications: linker 2-10 via mXylyl(4)
B10: R3036 (peptide)
peptide: Ac-[Nva]C[Phg]T[Trp(7-aza)]EA[NMeS]HC[Nva]-NH2
modifications: linker 2-10 via mXylyl(4)
B11: R3154 (peptide)
peptide: Ac-CVEAFCD[Tle]Y[Trp(7-aza)]EYP[dPhg][Nva]-NH2
modifications: linker 1-6 via mXylyl(3)
B12: R3004 (peptide)
peptide: Ac-[Nva]CYNN[Tle]E[Trp(7-aza)]EYP[Phg][Tle]-NH2
SMILES: CCC[C@H](NC(C)=O)C(=O)N[C@@H](CS)C(=O)N[C@@H](Cc1ccc(O)cc1)C(=O)N[C@@H](CC(N)=O)C(=O)N[C@@H](CC(N)=O)C(=O)N[C@H](C(=O)N[C@@H](CCC(=O)O)C(=O)N[C@@H](Cc1c[nH]c2ncccc12)C(=O)N[C@@H](CCC(=O)O)C(=O)N[C@@H](Cc1ccc(O)cc1)C(=O)N1CCC[C@H]1C(=O)N[C@H](C(=O)N[C@H](C(N)=O)C(C)(C)C)c1ccccc1)C(C)(C)C
B13: R3032 (peptide)
peptide: Ac-[Nva]CAT[Trp(7-aza)]EY[NMeS]HC[Nva]-NH2
modifications: linker 2-10 via mXylyl(4)
B14: R3164 (peptide)
peptide: Ac-CAERFCD[Tle]Y[Trp(7-aza)]EYP[Phg][Lys‑C12]-NH2
modifications: linker 1-6 via m‑xylyl
B15: R3003 (peptide)
peptide: Ac-[Nva]CYEN[Tle]Y[Trp(7-aza)]EYP[Phg]P-NH2
SMILES: CCC[C@H](NC(C)=O)C(=O)N[C@@H](CS)C(=O)N[C@@H](Cc1ccc(O)cc1)C(=O)N[C@@H](CCC(=O)O)C(=O)N[C@@H](CC(N)=O)C(=O)N[C@H](C(=O)N[C@@H](Cc1ccc(O)cc1)C(=O)N[C@@H](Cc1c[nH]c2ncccc12)C(=O)N[C@@H](CCC(=O)O)C(=O)N[C@@H](Cc1ccc(O)cc1)C(=O)N1CCC[C@H]1C(=O)N[C@H](C(=O)N1CCC[C@H]1C(N)=O)c1ccccc1)C(C)(C)C
B16: R3157 (peptide)
peptide: Ac-CVERFCA[Tle]Y[Trp(7-aza)]EYP[Phg][Nva]-NH2
modifications: linker 1-6 via m‑xylyl
B17: R3042 (peptide)
peptide: Ac-[Nva]C[Phg]T[Trp(7-aza)]EY[NMeS]HC[Nva]-NH2
modifications: bridge 2-10
B18: R3018 (peptide)
peptide: Ac-[Nva]CYEN[Tle]Y[Trp(7-aza)]ECP[Phg][Nva]-NH2
modifications: linker 2-10 via mXylyl″
B19: R3049 (peptide)
peptide: Ac-[Nva]C[Phg]T[Trp(7-aza)]EY[NMeS]HC[Nva]-NH2
modifications: linker 2-10 via oXylylene
SMILES: CCC[C@H](NC(=O)[C@@H]1CSCc2ccccc2CSC[C@H](NC(=O)[C@H](CCC)NC(C)=O)C(=O)N[C@@H](c2ccccc2)C(=O)N[C@@H]([C@@H](C)O)C(=O)N[C@@H](Cc2c[nH]c3ncccc23)C(=O)N[C@@H](CCC(=O)O)C(=O)N[C@@H](Cc2ccc(O)cc2)C(=O)N(C)[C@@H](CO)C(=O)N[C@@H](Cc2c[nH]cn2)C(=O)N1)C(N)=O
B20: R3028 (peptide)
peptide: Ac-[Tle]Y[Trp(7-aza)]EYP[Phg][Nva]-NH2
SMILES: CCC[C@H](NC(=O)[C@@H](NC(=O)[C@@H]1CCCN1C(=O)[C@H](Cc1ccc(O)cc1)NC(=O)[C@H](CCC(=O)O)NC(=O)[C@H](Cc1c[nH]c2ncccc12)NC(=O)[C@H](Cc1ccc(O)cc1)NC(=O)[C@@H](NC(C)=O)C(C)(C)C)c1ccccc1)C(N)=O
B21: R3031 (peptide)
peptide: Ac-AC[Phg]T[Trp(7-aza)]EY[NMeS]HC[Nva]-NH2
modifications: linker 2-10 via mXylyl(4)
B22: R3015 (peptide)
peptide: Ac-C[Phg]T[Trp(7-aza)]EY[NMeS]HC-NH2
modifications: linker 1-9 via mXylyl″
B23: R3156 (peptide)
peptide: Ac-CVERACD[Tle]Y[Trp(7-aza)]EYP[dPhg][Nva]-NH2
modifications: linker 1-6 via mXylyl(3)
B24: R3038 (peptide)
peptide: Ac-[Nva]C[Phg]T[Trp(7-aza)]EY[NMeS]AC[Nva]-NH2
modifications: linker 2-10 via mXylyl(4)
B25: R3155 (peptide)
peptide: Ac-CVERACD[Tle]Y[Trp(7-aza)]EYP[Phg][Nva]-NH2
modifications: linker 1-6 via mXylyl(3)
B26: R3037 (peptide)
peptide: Ac-[Nva]C[Phg]T[Trp(7-aza)]EY[NMeA]HC[Nva]-NH2
modifications: linker 2-10 via mXylyl(4)
B27: R3035 (peptide)
peptide: Ac-[Nva]C[Phg]T[Trp(7-aza)]AY[NMeS]HC[Nva]-NH2
modifications: linker 2-10 via mXylyl(4)
B28: R3033 (peptide)
peptide: Ac-[Nva]C[Phg]A[Trp(7-aza)]EY[NMeS]HC[Nva]-NH2
modifications: linker 2-10 via mXylyl(4)
B29: R3158 (peptide)
peptide: Ac-CVERFCA[Tle]Y[Trp(7-aza)]EYP[dPhg][Nva]-NH2
modifications: linker 1-6 via m‑xylyl
B30: R3023 (peptide)
peptide: Ac-YPYC[Phg][Trp(7-aza)][Tle]E[Nva]NY[Nva]E-NH2
SMILES: CCC[C@H](NC(=O)[C@H](Cc1ccc(O)cc1)NC(=O)[C@H](CC(N)=O)NC(=O)[C@H](CCC)NC(=O)[C@H](CCC(=O)O)NC(=O)[C@@H](NC(=O)[C@H](Cc1c[nH]c2ncccc12)NC(=O)[C@@H](NC(=O)[C@H](CS)NC(=O)[C@H](Cc1ccc(O)cc1)NC(=O)[C@@H]1CCCN1C(=O)[C@H](Cc1ccc(O)cc1)NC(C)=O)c1ccccc1)C(C)(C)C)C(=O)N[C@@H](CCC(=O)O)C(N)=O
B31: R3162 (peptide)
peptide: Ac-CAERFCD[Tle]Y[Trp(7-aza)]EYP[dPhg]K-NH2
modifications: linker 1-6 via m‑xylyl
B32: R3172 (peptide)
peptide: Ac-CVERFC[NMeD][Tle]Y[Trp(7-aza)]EYP[Chg][Nva]-NH2
modifications: linker 1-6 via m‑xylyl
B33: R3001 (peptide)
peptide: Ac-[Nva]CYEN[Tle]Y[Trp(7-aza)]EY[Sar][Nva][NMeS]-NH2
SMILES: CCC[C@H](NC(C)=O)C(=O)N[C@@H](CS)C(=O)N[C@@H](Cc1ccc(O)cc1)C(=O)N[C@@H](CCC(=O)O)C(=O)N[C@@H](CC(N)=O)C(=O)N[C@H](C(=O)N[C@@H](Cc1ccc(O)cc1)C(=O)N[C@@H](Cc1c[nH]c2ncccc12)C(=O)N[C@@H](CCC(=O)O)C(=O)N[C@@H](Cc1ccc(O)cc1)C(=O)N(C)CC(=O)N[C@@H](CCC)C(=O)N(C)[C@@H](CO)C(N)=O)C(C)(C)C
B34: R3050 (peptide)
peptide: Ac-[Nva]C[Phg]T[Trp(7-aza)]EY[NMeS]HC[Nva]-NH2
modifications: linker 2-10 via pXylyl
B35: R3016 (peptide)
peptide: Ac-C[Tle]Y[Trp(7-aza)]EY[NMeS]HC-NH2
modifications: linker 1-9 via mXylyl″

Target: human C5 protein (human, UniProt P01031 19-673; P01031 678-1676)
Assay: cell-based or functional assay

Binder | Avg. IC50, human hemolysis assay
B1 | 7 nM
B2 | 1320 nM
B3 | 175 nM
B4 | 7.5 nM
B5 | 17.5 nM
B6 | > 100000 nM
B7 | 24.6 nM
B8 | > 10200 nM
B9 | 240 nM
B10 | > 50000 nM
B11 | 592 nM
B12 | 53.5 nM
B13 | > 10000 nM
B14 | 36 nM
B15 | 13.9 nM
B16 | 84.5 nM
B17 | > 100000 nM
B18 | > 5730 nM

Binder | Avg. IC50, human hemolysis assay
B19 | > 3100 nM
B20 | > 10000 nM
B21 | 1090 nM
B22 | > 3960 nM
B23 | > 10000 nM
B24 | 140 nM
B25 | 1530 nM
B26 | 276 nM
B27 | > 50000 nM
B28 | 131 nM
B29 | 327 nM
B30 | > 100000 nM
B31 | 16.5 nM
B32 | 12 nM
B33 | 67.2 nM
B34 | 42.9 nM
B35 | > 13000 nM
